Test results taken from US20210246209A1 (SHANGHAI JUNSHI BIOSCIENCES, published 2021).
Read-outs that look alike come from different tables or passages of the source.

T1: hBTLA (human BTLA protein coated on plates or coupled to a chip) (human, UniProt Q7Z6A9 31-157, limits assumed)
T1 sequence (looked up): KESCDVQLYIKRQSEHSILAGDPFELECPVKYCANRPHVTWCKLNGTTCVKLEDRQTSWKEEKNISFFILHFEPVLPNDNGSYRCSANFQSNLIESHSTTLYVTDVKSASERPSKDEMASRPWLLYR

T2: recombinant protein of human BTLA extracellular domain (hBTLA-ECD-FC) (human, UniProt Q7Z6A9 31-157, biotin-labeled in the FACS blocking assays (site not stated))
T2 construct: extracellular domain; also called BTLA-Fc; biotin-labeled hBTLA; not shown: Fc of the self-constructed HX1-FC expression plasmid
T2 sequence (looked up): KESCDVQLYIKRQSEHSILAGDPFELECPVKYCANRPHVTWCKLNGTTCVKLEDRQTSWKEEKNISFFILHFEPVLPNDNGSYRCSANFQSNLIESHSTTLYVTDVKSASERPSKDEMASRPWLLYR


Assays:
[1] = target: T3, human BTLA expressed on cells (human, UniProt Q7Z6A9 31-289); test: FACS on 293F cells expressing hBTLA
T3 construct: whole, on cells
Method: The humanized anti-BTLA antibodies were determined for their binding ability to hBTLA expressed on cells using cell-based flow cytometry (FACS). […] Then the cells were mixed with 50 μL of antibody diluent at different concentrations (initial concentration: 10 μg/mL, 3-fold titration), and incubated at room temperature for 30 minutes. After being washed with an FACS buffer twice, the cells were added with 100 μL of goat anti-human IgG-PE antibody, incubated for 30 minutes away from light, and assayed by FACS after two washes with an FACS buffer. The washed cells were resuspended in 4° C. buffer containing propidium iodide (PI) and 0.02% sodium azide that prevents receptor internalization and analyzed by flow cytometry. Viable cells were gated on the basis of PI positive cells being excluded from the FSC/SSC gate and their geometric mean fluorescence intensity was measured. The data were analyzed using a sigmoidal dose-response model within Prism™ software.
The humanized antibodies hu17, hu18, and hu19 can effectively bind to hBTLA on 293 cells.

[2] = target: T1, hBTLA (human BTLA protein coated on …); test: ELISA, hBTLA coated at 0.5 µg/mL, anti-human IgG4-HRP detection
Method: (§1) The binding ability of the chimeric antibodies to hBTLA was assayed by ELISA. A 96-well microplate was coated with 0.5 μg/mL hBTLA and incubated at 37° C. for 60 minutes. The solution in wells was then discarded, and the wells were washed 3 times with washing buffer, and blocked for 60 minutes with PBS containing 2% BSA. After being washed 3 times with washing buffer, the wells were added with gradiently-diluted antibodies, incubated at 37° C. for 60 minutes, and washed 3 times with washing buffer before adding a HRP-labeled mouse anti-human IgG4 secondary antibody diluted at 1:10000. The mixture was incubated at 37° C. for 1 hour, washed three times with washing buffer, and added with 100 μL of TMB substrate solution for color development at room temperature for 30 minutes, then the reaction was stopped with 100 μL of 2M hydrochloric acid solution and the absorbance was read at 450 nm.
The chimeric antibodies ch7, ch12, ch17, ch22 and ch27 can specifically bind to hBTLA.

[3] = target: T2, recombinant protein of human BTLA …; test: FACS, blocking of biotin-labeled hBTLA binding to hHVEM-293F cells
Method: (§2) Then the cells were mixed with previously biotin-labeled hBTLA (1 μg/mL) protein, incubated at 4° C. for 15 minutes, followed by mixing with 50 μL of chimeric antibody diluent (initial concentration: 5 μg/mL, 3-fold titration) at different concentrations, and incubating at room temperature for 30 minutes. After being washed with an FACS buffer twice, the cells were added with 100 μL of goat anti-human IgG-PE antibody, incubated for 30 minutes away from light, and assayed by FACS after two washes with an FACS buffer. The washed cells were resuspended in 4° C. buffer containing propidium iodide (PI) and 0.02% sodium azide that prevents receptor internalization and analyzed by flow cytometry. Viable cells were gated on the basis of PI positive cells being excluded from the FSC/SSC gate and their geometric mean fluorescence intensity (MFI) was measured. The data were analyzed using a sigmoidal dose-response model within PrismTM software.
The chimeric antibodies ch12, ch17, ch22 and ch27 can effectively block the binding of human BTLA to HVEM on the cell surface.

[4] = target: T2, recombinant protein of human BTLA …; test: as above; remark: listed apart in the source
Method: as §2, with “humanized” for “chimeric”, “intensity” for “intensity (MFI)”, “Prism™” for “PrismTM”
The […] antibodies hu17, hu18, and hu19 can effectively block the binding of human BTLA to HVEM on the cell surface.

[5] = target: T3, human BTLA expressed on cells; test: cell-based or functional assay
[6] = target: recombinant human FcγRIIIA (CD16a) V176 (human) (UniProt P08637); test: SPR, Biacore T200, Fc receptor captured by anti-His antibody, antibody injected; IgG4 subtype (hu18), kinetics N/A
Sequence of recombinant human FcγRIIIA (CD16a) V176 (human) (P08637 17-208 F176V limits assumed): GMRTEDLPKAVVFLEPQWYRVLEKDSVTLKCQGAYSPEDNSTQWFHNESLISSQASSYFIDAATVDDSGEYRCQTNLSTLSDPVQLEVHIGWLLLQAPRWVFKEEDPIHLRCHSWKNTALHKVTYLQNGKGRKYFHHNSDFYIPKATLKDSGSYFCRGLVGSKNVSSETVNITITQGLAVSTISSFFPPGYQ

[7] = target: T1, hBTLA (human BTLA protein coated on …); test: ELISA, hBTLA coated at 0.5 µg/mL, anti-human IgG4-HRP detection; remark: listed apart in the source
Method: as §1, with “specificity” for “ability”, “humanized” for “chimeric”, “determined” for “assayed”, “conventional ELISA method.” for “ELISA.”
The humanized antibodies hu17, hu18, and hu19 can specifically bind to hBTLA.

[8] = target: T2, recombinant protein of human BTLA …; test: SPR, Biacore T200, BTLA-Fc amine-coupled to chip, antibody as analyte, 1:1 fit
Method: The assay was carried out using a Biacore T200 instrument (GE Healthcare). Series S CMS chip was loaded on the instrument and the system buffer used was HBS-EP+(10 mM HEPES, pH 7.4, 150 mM NaCl, 3 mM EDTA, 0.05% surfactant P20). The BTLA-Fc antigens were coupled in a chip detection channel: injecting a mixed solution of 400 mM EDC and 100 mM NHS at 10 μL/min for 420 s to activate the surface of the chip, diluting the BTLA-Fc antigens in a 10 mM sodium acetate/acetic acid (pH 5.5) buffer to a final concentration of 20 μg/mL and injecting at 10 μL/min for coupling, and injecting a 1M ethanolamine-hydrochloric acid solution (pH 8.5) at 10 μL/min for 420 s for blocking.
Antibodies were diluted in a 2-fold gradient with Biacore system buffer for a total of 6 concentration points. Concentration gradients were 24 nM, 12 nM, 6 nM, 3 nM, 1.5 nM and 0.75 nM, with 24 nM being a replicate. Data were analyzed using Biacore T200 Evaluation Software (version no. 3.0, GE Healthcare). Data were fitted using a model of 1:1 Binding. The kinetic constants of the binding of the antibodies to the antigens, namely, the association rate constant ka (1/Ms), dissociation rate constant kd (1/s) and the affinity constant kd (M), were obtained by fitting, and the results are shown in Table 8.

[9] = target: recombinant human FcγRIIIA (CD16a) V176 (human) (UniProt P08637); test: SPR, Biacore T200, Fc receptor captured by anti-His antibody, antibody injected
[10] = target: recombinant human FcRn (human) (UniProt P55899); test: as above
Sequence of recombinant human FcRn (human) (P55899 24-297 limits assumed, form in doubt, chain 1 of 2): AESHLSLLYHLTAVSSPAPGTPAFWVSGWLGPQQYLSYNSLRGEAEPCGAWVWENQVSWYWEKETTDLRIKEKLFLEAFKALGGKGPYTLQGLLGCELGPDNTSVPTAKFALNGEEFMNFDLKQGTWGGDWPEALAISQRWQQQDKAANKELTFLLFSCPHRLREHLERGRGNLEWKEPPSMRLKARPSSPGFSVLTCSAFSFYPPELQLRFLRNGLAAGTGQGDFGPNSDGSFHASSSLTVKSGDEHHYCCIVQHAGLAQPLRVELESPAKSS
Sequence of recombinant human FcRn (human) (chain, as listed by the source limits assumed, form in doubt, chain 2 of 2): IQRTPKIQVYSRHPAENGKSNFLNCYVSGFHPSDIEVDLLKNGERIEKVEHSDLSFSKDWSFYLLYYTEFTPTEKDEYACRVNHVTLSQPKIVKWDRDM

[11] = target: recombinant human FcγRI (CD64) (human) (UniProt P12314); test: as above
Sequence of recombinant human FcγRI (CD64) (human) (P12314 16-288 limits assumed): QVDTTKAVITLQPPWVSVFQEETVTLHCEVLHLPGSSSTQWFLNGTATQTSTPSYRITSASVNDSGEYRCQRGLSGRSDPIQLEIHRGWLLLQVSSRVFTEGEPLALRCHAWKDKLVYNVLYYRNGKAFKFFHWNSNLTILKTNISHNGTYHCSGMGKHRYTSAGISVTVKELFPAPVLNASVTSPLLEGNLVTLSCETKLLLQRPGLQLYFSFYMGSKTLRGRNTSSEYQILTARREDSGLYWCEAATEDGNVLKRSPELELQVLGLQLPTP

Binder | EC50 [1] [mg/L] | EC50 [2] [mg/L] | IC50 [3] [mg/L] | IC50 [4] [mg/L] | EC50 (luciferase reporter, T cell activation) [5] [mg/L] | other results
chimeric antibody ch12 (antibody, human IgG4, V domains shown, T0010 gives only CDR numbers (HCDR 13-15, LCDR 10-12)) VH: EVQLQQSGADLVKPGASVKLSCTASGFNFKHTYAHWVKQRPEQGLEWIGRIDPANGNTKYDPKFQGKATMTADTASNAAFLQLSSLTSEDTAVYYCVADHYGSSLLDYWGQGTSLTVSS VL: EVVMTQTPLTLSVTIGQSASISCKSSQSLLDSDGKTYLNWFLQRPGQSPKRLMHLVSKLDSGVPDRFTGSGSGTDFTLKISGVEAEDLGVYYCWQGTYFPYTFGGGTKLETK | 0.0881 | 0.0094 | 0.0772 | 0.157 | 0.139 | –
chimeric antibody ch7 (antibody, human IgG4, V domains shown, T0010 gives only CDR numbers (HCDR 4-6, LCDR 10-12)) VH: EVQLQQSGAELVKPGASVKLSCTVSGFNIKDSYIHWVKQRPEQGLEWIGRIDPANGNTKYDPKFRGKATITADASSNTAALQVSSLTSEDTAVYFCVGDHYGSSLFDYWGHGTTLTVSS VL: EVVMTQTPLTLSVTIGQSASISCKSSQSLLDSDGKTYLNWFLQRPGQSPKRLMHLVSKLDSGVPDRFTGSGSGTDFTLKISGVEAEDLGVYYCWQGTYFPYTFGGGTKLETK | – | 0.0066 | – | – | – | –
chimeric antibody ch17 (antibody, human IgG4, V domains shown, T0010 gives only CDR numbers (HCDR 19-21, LCDR 10-12)) VH: EVQLQQSGADLVKPGASVKLSCTASGFNIKDTYVHWVKQRPEQGLEWIGRIDPANGHTKFDPKFQGKATITADTSSNTANLQISSLTSEDTAVYYCVSDYYGSSLLDYWGQGTTLTVSS VL: EVVMTQTPLTLSVTIGQSASISCKSSQSLLDSDGKTYLNWFLQRPGQSPKRLMHLVSKLDSGVPDRFTGSGSGTDFTLKISGVEAEDLGVYYCWQGTYFPYTFGGGTKLETK | – | 0.0298 | 0.0761 | – | – | –
chimeric antibody ch27 (antibody, human IgG4, V domains shown, T0010 gives only CDR numbers (HCDR 28-30, LCDR 10-12)) VH: EVHLQQSGTELMKPGASVKLSCTASGLNIRDTYMHWVKQRPEQGLEWIGRIDPANGNTKFDPKFQGKATLTSDTSSNTAYLHFSSLTSEDAAVYYCVSDHYGSSLLDYWGQGTSLTVSS VL: EVVMTQTPLTLSVTIGQSASISCKSSQSLLDSDGKTYLNWFLQRPGQSPKRLMHLVSKLDSGVPDRFTGSGSGTDFTLKISGVEAEDLGVYYCWQGTYFPYTFGGGTKLETK | – | 0.0052 | 0.0695 | – | – | –
chimeric antibody ch22 (antibody, human IgG4, V domains shown, T0010 gives only CDR numbers (HCDR 25-27, LCDR 10-12)) VH: EVQLQQSGAELVRPGASVKLSCTVSGFNIKDTYVHWVKQRPEQGLEWIGRIDPANGHTKYDPKLQGTATITADTSSNTAYLQLSSLTSEDTAVYYCATDYYGSSLLDYWGQGTTLTVSS VL: EVVMTQTPLTLSVTIGQSASISCKSSQSLLDSDGKTYLNWFLQRPGQSPKRLMHLVSKLDSGVPDRFTGSGSGTDFTLKISGVEAEDLGVYYCWQGTYFPYTFGGGTKLETK | – | 0.0373 | 0.0757 | – | – | –
humanized antibody hu18 (antibody, IgG4, V domains shown, also called JS004; recombinant human anti-BTLA antibody) VH: QVQLVQSGAEVKKPGASVKLSCKASGYNFKHTYAHWVRQAPGQGLEWIGRIDPANGNTKYDPKFQGRATMTADTASNTAYLELSSLRSEDTAVYYCVADHYGSSLLDYWGQGTLVTVSS VL: DVVMTQTPLSLSVTPGQPASISCKSSQSLLDSDGKTYLNWFQQRPGQSPRRLIYLVSKLDSGVPDRFSGSGSGTDFTLKISRVEAEDVGVYYCWQGTYFPYTFGQGTKLEIK | 0.0893 | – | – | 0.172 | 0.277 | Kd [6]: 60.2 µM; EC50 [7]: 0.0054 mg/L; Kd [8]: 0.000136 µM; koff [8]: 8.67e-05 s⁻¹; kon [8]: 639000 M⁻¹ s⁻¹; fold weaker than the control antibody of the IgG1 subtype (hu18-IgG1) [9]: 400 fold; Kd [10]: 0.138 µM; koff [10]: 0.0708 s⁻¹; kon [10]: 512000 M⁻¹ s⁻¹; Kd [11]: 0.0184 µM; koff [11]: 0.00387 s⁻¹; kon [11]: 210000 M⁻¹ s⁻¹
humanized antibody hu19 (antibody, V domains shown, It was detected with an anti-human IgG4 secondary antibody) VH: QVQLVQSGAEVKKPGASVKLSCKASGYNFKHTYAHWVRQAPGQGLEWIGRIDPANGNTKYDPKFQGRATMTADTASNTAYLELSSLRSEDTAVYYCVADHYGSSLLDYWGQGTLVTVSS VL: DIVMTQTPLSLSVTPGQPASISCKSSQSLLDSDGKTYLNWFQQRPGQSPRRLMHLVSKLDSGVPDRFSGSGSGTDFTLKISRVEAEDVGVYYCWQGTYFPYTFGQGTKLEIK | 0.0951 | – | – | 0.162 | 0.29 | EC50 [7]: 0.0066 mg/L
